Measured values reported in article PMC9482650, “Quantitative fragmentomics allow affinity mapping of interactomes” (Nature Communications, 2022).

Legend:
Assay in all cases: holdup assay
Set-up in all cases: key: below the threshold = too weak to quantify, mostly under pKd 3.1 to 4
[1] = target: T1, APBA2_2, Q99767
T1 sequence (Q99767 654-744, limits assumed, looked up): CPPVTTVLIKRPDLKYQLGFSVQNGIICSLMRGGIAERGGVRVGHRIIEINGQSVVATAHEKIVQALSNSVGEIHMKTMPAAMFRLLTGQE

[2] = target: CASK, O14936
[3] = target: DLG4_2, P78352
[4] = target: DLG4_3, P78352
[5] = target: FRMPD3, Q5JV73
[6] = target: FRMPD4, Q14CM0
[7] = target: GORASP1, Q9BQQ3
[8] = target: T2, GRIP1_3, Q9Y3R0
T2 sequence (Q9Y3R0 247-346, limits assumed, looked up): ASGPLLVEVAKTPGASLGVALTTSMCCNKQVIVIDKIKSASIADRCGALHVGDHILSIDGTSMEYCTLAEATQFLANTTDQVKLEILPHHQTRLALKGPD

[9] = target: T3, GRIP1_5, Q9Y3R0
T3 sequence (Q9Y3R0 568-668, limits assumed, looked up): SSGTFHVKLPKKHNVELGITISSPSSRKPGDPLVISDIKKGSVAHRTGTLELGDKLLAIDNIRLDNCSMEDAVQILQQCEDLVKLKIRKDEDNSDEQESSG

[10] = target: GRIP2_4, Q9C0E4
[11] = target: GRIP2_7, Q9C0E4
[12] = target: IL16_4, Q14005
[13] = target: Inadl_1, Q8NI35
[14] = target: Inadl_6, Q8NI35
[15] = target: LNX1_1, Q8TBB1
[16] = target: LNX1_2, Q8TBB1
[17] = target: LNX1_3, Q8TBB1
[18] = target: MAGI1_1, Q96QZ7
[19] = target: MAGI1_2, Q96QZ7
[20] = target: MAGI2_5, Q86UL8
[21] = target: MAGI2_6, Q86UL8
[22] = target: PDZRN4_1, Q6ZMN7
[23] = target: PICK1, Q9NRD5
[24] = target: T4, RADIL, Q96JH8
T4 sequence (Q96JH8 971-1071, limits assumed, looked up): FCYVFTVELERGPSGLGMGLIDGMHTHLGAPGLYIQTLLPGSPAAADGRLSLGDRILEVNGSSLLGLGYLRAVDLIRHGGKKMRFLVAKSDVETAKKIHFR

[25] = target: SCRIB_3, Q14160
[26] = target: T5, SNTB1, Q13884
T5 sequence (Q13884 107-205, limits assumed, looked up): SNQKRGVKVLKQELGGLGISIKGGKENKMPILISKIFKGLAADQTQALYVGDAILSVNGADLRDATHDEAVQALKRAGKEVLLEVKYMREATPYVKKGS

[27] = target: SNX27, Q96L92
[28] = target: T6, TX1BP3, O14907
T6 sequence (O14907 10-122, limits assumed, looked up): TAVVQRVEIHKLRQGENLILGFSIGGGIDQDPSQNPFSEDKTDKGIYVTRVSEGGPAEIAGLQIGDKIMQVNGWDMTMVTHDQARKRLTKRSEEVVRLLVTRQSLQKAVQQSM

[29] = target: T7, PDZRN3_1, Q9UPQ7
T7 sequence (Q9UPQ7 244-349, limits assumed, looked up): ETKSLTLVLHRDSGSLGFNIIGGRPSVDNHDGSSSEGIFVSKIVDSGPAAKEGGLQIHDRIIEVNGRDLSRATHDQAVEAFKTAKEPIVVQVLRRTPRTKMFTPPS

[30] = target: SCRIB_2, Q14160
[31] = plain residues with an end cap or a label only (N-terminal biotin on a linker: ado-ado)
[32] = plain residues with an end cap or a label only (N-terminal biotin on a linker: (peg)3)

Chain of MAGI2_5, Q86UL8 (Q86UL8 915-1017): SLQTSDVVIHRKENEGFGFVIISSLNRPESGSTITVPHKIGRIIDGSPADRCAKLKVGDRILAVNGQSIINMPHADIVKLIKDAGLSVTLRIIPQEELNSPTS
Chain of PICK1, Q9NRD5 (Q9NRD5 17-115): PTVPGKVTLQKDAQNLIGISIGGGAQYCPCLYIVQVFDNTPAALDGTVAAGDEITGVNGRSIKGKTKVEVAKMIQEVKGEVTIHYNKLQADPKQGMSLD
Chain of MAGI1_1, Q96QZ7 (Q96QZ7 1-106): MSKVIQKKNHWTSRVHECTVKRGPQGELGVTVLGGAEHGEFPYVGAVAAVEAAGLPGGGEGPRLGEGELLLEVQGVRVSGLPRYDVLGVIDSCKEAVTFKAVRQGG
Chain of GORASP1, Q9BQQ3 (Q9BQQ3 1-208): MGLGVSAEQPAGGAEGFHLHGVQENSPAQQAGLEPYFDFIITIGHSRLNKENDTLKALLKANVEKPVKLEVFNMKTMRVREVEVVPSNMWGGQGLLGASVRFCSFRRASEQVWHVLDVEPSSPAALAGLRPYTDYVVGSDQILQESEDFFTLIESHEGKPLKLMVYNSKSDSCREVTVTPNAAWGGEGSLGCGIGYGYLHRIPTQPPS
Chain of LNX1_3, Q8TBB1 (Q8TBB1 500-596): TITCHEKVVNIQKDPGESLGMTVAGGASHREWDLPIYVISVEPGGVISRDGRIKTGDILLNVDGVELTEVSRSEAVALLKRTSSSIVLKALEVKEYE
Chain of DLG4_3, P78352 (P78352 306-403): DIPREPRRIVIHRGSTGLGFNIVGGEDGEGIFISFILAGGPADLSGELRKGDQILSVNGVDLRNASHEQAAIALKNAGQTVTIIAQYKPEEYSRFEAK
Chain of SCRIB_3, Q14160 (Q14160 999-1103): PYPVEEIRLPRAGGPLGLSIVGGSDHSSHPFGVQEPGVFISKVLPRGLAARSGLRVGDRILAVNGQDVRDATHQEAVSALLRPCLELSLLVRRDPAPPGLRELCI
Chain of PDZRN4_1, Q6ZMN7 (Q6ZMN7 213-318): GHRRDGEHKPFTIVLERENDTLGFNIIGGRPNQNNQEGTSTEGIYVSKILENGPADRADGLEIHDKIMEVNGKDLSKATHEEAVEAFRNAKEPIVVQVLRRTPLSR
Chain of FRMPD4, Q14CM0 (Q14CM0 67-160): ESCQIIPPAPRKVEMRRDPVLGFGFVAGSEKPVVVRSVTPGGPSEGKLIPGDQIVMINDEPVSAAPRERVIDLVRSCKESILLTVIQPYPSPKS
Chain of MAGI1_2, Q96QZ7 (Q96QZ7 456-580): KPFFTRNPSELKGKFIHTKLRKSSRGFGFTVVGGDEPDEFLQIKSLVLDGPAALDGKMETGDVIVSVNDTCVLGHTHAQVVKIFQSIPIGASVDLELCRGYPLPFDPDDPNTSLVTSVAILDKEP
Chain of LNX1_2, Q8TBB1 (Q8TBB1 371-470): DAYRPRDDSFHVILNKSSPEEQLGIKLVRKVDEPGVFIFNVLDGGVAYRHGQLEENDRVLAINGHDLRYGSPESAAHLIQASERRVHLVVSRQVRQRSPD
Chain of DLG4_2, P78352 (P78352 155-259): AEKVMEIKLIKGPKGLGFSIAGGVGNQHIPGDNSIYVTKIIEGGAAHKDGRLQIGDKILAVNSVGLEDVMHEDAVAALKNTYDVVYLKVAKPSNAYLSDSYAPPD
Chain of SCRIB_2, Q14160 (Q14160 857-960): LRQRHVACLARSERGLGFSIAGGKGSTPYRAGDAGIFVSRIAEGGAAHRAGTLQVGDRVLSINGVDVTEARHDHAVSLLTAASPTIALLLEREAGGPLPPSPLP
Chain of MAGI2_6, Q86UL8 (Q86UL8 1141-1229): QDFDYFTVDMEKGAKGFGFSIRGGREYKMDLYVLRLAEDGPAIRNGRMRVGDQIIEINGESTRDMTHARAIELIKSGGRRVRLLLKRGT
Chain of FRMPD3, Q5JV73 (Q5JV73 12-100): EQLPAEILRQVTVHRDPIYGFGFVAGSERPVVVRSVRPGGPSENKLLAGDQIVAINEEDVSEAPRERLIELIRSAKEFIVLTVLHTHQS
Chain of CASK, O14936 (O14936 487-570): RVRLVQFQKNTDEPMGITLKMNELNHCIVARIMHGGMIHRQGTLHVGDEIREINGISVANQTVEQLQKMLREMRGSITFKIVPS
Chain of Inadl_6, Q8NI35 (Q8NI35 1058-1167): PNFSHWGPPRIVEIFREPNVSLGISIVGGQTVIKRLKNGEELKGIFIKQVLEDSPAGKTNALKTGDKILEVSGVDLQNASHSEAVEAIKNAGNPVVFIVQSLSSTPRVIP
Chain of GRIP2_4, Q9C0E4 (Q9C0E4 446-548): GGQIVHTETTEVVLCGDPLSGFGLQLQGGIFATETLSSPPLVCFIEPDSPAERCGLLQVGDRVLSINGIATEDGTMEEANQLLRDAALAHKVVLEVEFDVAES
Chain of GRIP2_7, Q9C0E4 (Q9C0E4 934-1023): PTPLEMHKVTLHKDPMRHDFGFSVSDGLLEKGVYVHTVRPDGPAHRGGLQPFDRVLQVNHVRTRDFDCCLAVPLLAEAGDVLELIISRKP
Chain of Inadl_1, Q8NI35 (Q8NI35 113-229): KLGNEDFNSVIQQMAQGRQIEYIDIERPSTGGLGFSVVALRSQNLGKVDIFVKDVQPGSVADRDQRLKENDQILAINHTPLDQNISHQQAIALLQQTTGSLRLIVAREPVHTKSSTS
Chain of IL16_4, Q14005 (Q14005 1229-1329): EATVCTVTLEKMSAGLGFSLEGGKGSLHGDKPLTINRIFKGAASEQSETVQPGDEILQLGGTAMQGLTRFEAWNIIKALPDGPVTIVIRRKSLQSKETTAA
Chain of LNX1_1, Q8TBB1 (Q8TBB1 261-371): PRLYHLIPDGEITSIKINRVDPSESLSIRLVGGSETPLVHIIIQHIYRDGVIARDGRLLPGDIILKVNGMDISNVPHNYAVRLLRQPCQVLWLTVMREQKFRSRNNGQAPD

B1: ATP2A2, P16615;P16615-3 (peptide)
chain: YLEPVLSSEL
- pKd [1, 31]: below the threshold
- pKd [2, 31]: below the threshold
- pKd [3, 31]: below the threshold
- pKd [4, 31]: below the threshold
- pKd [5, 31]: below the threshold
- pKd [6, 31]: below the threshold
- pKd [7, 31]: below the threshold
- pKd [8, 31]: below the threshold
- pKd [9, 31]: below the threshold
- pKd [10, 31]: below the threshold
- pKd [11, 31]: below the threshold
- pKd [12, 31]: below the threshold
- pKd [13, 31]: below the threshold
- pKd [14, 31]: below the threshold
- pKd [15, 31]: 4.24
- pKd [16, 31]: below the threshold
- pKd [17, 31]: below the threshold
- pKd [18, 31]: below the threshold
- pKd [19, 31]: below the threshold
- pKd [20, 31]: 4.82
- pKd [21, 31]: 3.91
- pKd [22, 31]: below the threshold
- pKd [23, 31]: below the threshold
- pKd [24, 31]: below the threshold
- pKd [25, 31]: 4.51
- pKd [26, 31]: below the threshold
- pKd [27, 31]: 4.12
- pKd [28, 31]: 3.94

B2: PDLIM4_iso2, P50479;P50479-1 (peptide)
chain: VYPNAKVELV
- pKd [1, 31]: below the threshold
- pKd [2, 31]: below the threshold
- pKd [3, 31]: below the threshold
- pKd [4, 31]: below the threshold
- pKd [5, 31]: below the threshold
- pKd [6, 31]: below the threshold
- pKd [7, 31]: 4.48
- pKd [8, 31]: below the threshold
- pKd [9, 31]: below the threshold
- pKd [10, 31]: below the threshold
- pKd [11, 31]: below the threshold
- pKd [13, 31]: below the threshold
- pKd [14, 31]: below the threshold
- pKd [15, 31]: below the threshold
- pKd [17, 31]: below the threshold
- pKd [18, 31]: below the threshold
- pKd [19, 31]: below the threshold
- pKd [20, 31]: below the threshold
- pKd [21, 31]: below the threshold
- pKd [29, 31]: below the threshold
- pKd [22, 31]: below the threshold
- pKd [23, 31]: 4.26
- pKd [24, 31]: 5.24
- pKd [30, 31]: below the threshold
- pKd [25, 31]: below the threshold
- pKd [26, 31]: below the threshold
- pKd [27, 31]: below the threshold
- pKd [28, 31]: below the threshold

B3: SARS-CoV-E, P59637 (peptide)
chain: NLNSSEGVPDLLV
- pKd [1, 32]: below the threshold
- pKd [2, 32]: below the threshold
- pKd [3, 32]: below the threshold
- pKd [4, 32]: below the threshold
- pKd [5, 32]: below the threshold
- pKd [6, 32]: below the threshold
- pKd [7, 32]: below the threshold
- pKd [8, 32]: below the threshold
- pKd [9, 32]: below the threshold
- pKd [10, 32]: below the threshold
- pKd [11, 32]: below the threshold
- pKd [12, 32]: below the threshold
- pKd [13, 32]: below the threshold
- pKd [14, 32]: below the threshold
- pKd [15, 32]: below the threshold
- pKd [16, 32]: 4.06
- pKd [17, 32]: below the threshold
- pKd [18, 32]: below the threshold
- pKd [19, 32]: below the threshold
- pKd [20, 32]: below the threshold
- pKd [21, 32]: below the threshold
- pKd [29, 32]: below the threshold
- pKd [22, 32]: below the threshold
- pKd [23, 32]: below the threshold
- pKd [24, 32]: below the threshold
- pKd [30, 32]: below the threshold
- pKd [25, 32]: below the threshold
- pKd [26, 32]: below the threshold
- pKd [27, 32]: below the threshold
- pKd [28, 32]: below the threshold

B4: SLC34A1, Q06495;Q06495-1 (peptide)
chain: LPAHHNATRL
- pKd [1, 31]: below the threshold
- pKd [2, 31]: below the threshold
- pKd [3, 31]: below the threshold
- pKd [4, 31]: below the threshold
- pKd [5, 31]: below the threshold
- pKd [6, 31]: 4.31
- pKd [7, 31]: below the threshold
- pKd [8, 31]: below the threshold
- pKd [9, 31]: below the threshold
- pKd [10, 31]: below the threshold
- pKd [11, 31]: below the threshold
- pKd [12, 31]: below the threshold
- pKd [13, 31]: below the threshold
- pKd [14, 31]: below the threshold
- pKd [16, 31]: below the threshold
- pKd [17, 31]: below the threshold
- pKd [18, 31]: below the threshold
- pKd [21, 31]: below the threshold
- pKd [22, 31]: 4.2
- pKd [23, 31]: 4.19
- pKd [24, 31]: below the threshold
- pKd [30, 31]: below the threshold
- pKd [25, 31]: 4.02
- pKd [26, 31]: below the threshold
- pKd [27, 31]: 4.19
- pKd [28, 31]: below the threshold

B5: TRIM29, Q14134;Q14134-2 (peptide)
chain: KSGKQTMLVV
- pKd [1, 31]: below the threshold
- pKd [4, 31]: below the threshold
- pKd [5, 31]: below the threshold
- pKd [6, 31]: below the threshold
- pKd [7, 31]: 4.34
- pKd [8, 31]: below the threshold
- pKd [9, 31]: below the threshold
- pKd [10, 31]: below the threshold
- pKd [11, 31]: below the threshold
- pKd [13, 31]: below the threshold
- pKd [14, 31]: below the threshold
- pKd [15, 31]: below the threshold
- pKd [16, 31]: 4.23
- pKd [17, 31]: below the threshold
- pKd [18, 31]: below the threshold
- pKd [19, 31]: below the threshold
- pKd [20, 31]: below the threshold
- pKd [21, 31]: below the threshold
- pKd [29, 31]: below the threshold
- pKd [23, 31]: below the threshold
- pKd [24, 31]: 4.46
- pKd [30, 31]: below the threshold
- pKd [25, 31]: below the threshold
- pKd [26, 31]: below the threshold
